In patent US20250327097A1, “ORGANISMS PRODUCING LESS CROTONIC ACID” (Global Bioenergies, priority 2021, published 2025):

tested on: 3-methylcrotonic acid; type: biochemical, Yersinia frederiksenii; design: key: “+” representing a low increase in activity; “++++” representing a high increase in activity

Molecule	Activity relative to WT
I283T-P284D-N287P-S322T-N388M-C430N-L432F-L434W-S436N-H461V-dG462-A463T (protein) MFLKSLREQINLLKRQGDLRIINRPVDSYLEAAAIIRRSTETKAPVPLMTNIKGYPGCSIVGGLAALSSNPEYPLSRVAMSLGLSTTASAQSIVQYLIDGLKKTPYLPVEIDSNSAPCKQNILRGEDASLAHFPIPQVHQHDGNRYVNTWGVFIVESPDGQWCNWSIQRVQYLNDRQMIALVFPSQHISDIWEEWVKIGKPMPYALVQGCEPIVPYIAGLPLLERNVNEAEYIGALYGKGIEVVKCETHDLRVPASSEVVIEGYFAITREGVEGPFGEFAGYTDNEPSLQPILSITAISWQDDPIWPVVAEGKPVDEYHTCTGIGDAAAIQNVLLTANLPVSFVWVPLYSACHLMIVSINRHWRQTHPDLTSEQLTKKVGDVIHQTRMSIKLPKIVVLDDDVDPADTESLLWALATRIHPERKRYFYESNIFPWLNCYSEEERHNRKGKRVIIDALLPENVGTISSFDYAYPDDIKQRVLMHWETDFSHD	++++
I283T-P284D-N287P-S322T-N388M-C430N-L432F-L434W-S436N-dG462-A463T-S465V (protein) MFLKSLREQINLLKRQGDLRIINRPVDSYLEAAAIIRRSTETKAPVPLMTNIKGYPGCSIVGGLAALSSNPEYPLSRVAMSLGLSTTASAQSIVQYLIDGLKKTPYLPVEIDSNSAPCKQNILRGEDASLAHFPIPQVHQHDGNRYVNTWGVFIVESPDGQWCNWSIQRVQYLNDRQMIALVFPSQHISDIWEEWVKIGKPMPYALVQGCEPIVPYIAGLPLLERNVNEAEYIGALYGKGIEVVKCETHDLRVPASSEVVIEGYFAITREGVEGPFGEFAGYTDNEPSLQPILSITAISWQDDPIWPVVAEGKPVDEYHTCTGIGDAAAIQNVLLTANLPVSFVWVPLYSACHLMIVSINRHWRQTHPDLTSEQLTKKVGDVIHQTRMSIKLPKIVVLDDDVDPADTESLLWALATRIHPERKRYFYESNIFPWLNCYSEEERHNRKGKRVIIDALLPENHGTIVSFDYAYPDDIKQRVLMHWETDFSHD	++++
I283T-P284D-N287P-S322T-N388M-E421V-C430N-L432F-L434W-S436N-H461T-dG462 (protein) MFLKSLREQINLLKRQGDLRIINRPVDSYLEAAAIIRRSTETKAPVPLMTNIKGYPGCSIVGGLAALSSNPEYPLSRVAMSLGLSTTASAQSIVQYLIDGLKKTPYLPVEIDSNSAPCKQNILRGEDASLAHFPIPQVHQHDGNRYVNTWGVFIVESPDGQWCNWSIQRVQYLNDRQMIALVFPSQHISDIWEEWVKIGKPMPYALVQGCEPIVPYIAGLPLLERNVNEAEYIGALYGKGIEVVKCETHDLRVPASSEVVIEGYFAITREGVEGPFGEFAGYTDNEPSLQPILSITAISWQDDPIWPVVAEGKPVDEYHTCTGIGDAAAIQNVLLTANLPVSFVWVPLYSACHLMIVSINRHWRQTHPDLTSEQLTKKVGDVIHQTRMSIKLPKIVVLDDDVDPADTESLLWALATRIHPVRKRYFYESNIFPWLNCYSEEERHNRKGKRVIIDALLPENTGAISSFDYAYPDDIKQRVLMHWETDFSHD	++++
I283T-P284D-N287P-S322T-N388M-C430N-L432F-L434W-S436N-H461A-dG462-A463T-S465V (protein) MFLKSLREQINLLKRQGDLRIINRPVDSYLEAAAIIRRSTETKAPVPLMTNIKGYPGCSIVGGLAALSSNPEYPLSRVAMSLGLSTTASAQSIVQYLIDGLKKTPYLPVEIDSNSAPCKQNILRGEDASLAHFPIPQVHQHDGNRYVNTWGVFIVESPDGQWCNWSIQRVQYLNDRQMIALVFPSQHISDIWEEWVKIGKPMPYALVQGCEPIVPYIAGLPLLERNVNEAEYIGALYGKGIEVVKCETHDLRVPASSEVVIEGYFAITREGVEGPFGEFAGYTDNEPSLQPILSITAISWQDDPIWPVVAEGKPVDEYHTCTGIGDAAAIQNVLLTANLPVSFVWVPLYSACHLMIVSINRHWRQTHPDLTSEQLTKKVGDVIHQTRMSIKLPKIVVLDDDVDPADTESLLWALATRIHPERKRYFYESNIFPWLNCYSEEERHNRKGKRVIIDALLPENAGTIVSFDYAYPDDIKQRVLMHWETDFSHD	++++
I283T-P284D-N287P-S322T-N388M-C430N-L432F-L434W-S436N-H461V-dG462-S465V (protein) MFLKSLREQINLLKRQGDLRIINRPVDSYLEAAAIIRRSTETKAPVPLMTNIKGYPGCSIVGGLAALSSNPEYPLSRVAMSLGLSTTASAQSIVQYLIDGLKKTPYLPVEIDSNSAPCKQNILRGEDASLAHFPIPQVHQHDGNRYVNTWGVFIVESPDGQWCNWSIQRVQYLNDRQMIALVFPSQHISDIWEEWVKIGKPMPYALVQGCEPIVPYIAGLPLLERNVNEAEYIGALYGKGIEVVKCETHDLRVPASSEVVIEGYFAITREGVEGPFGEFAGYTDNEPSLQPILSITAISWQDDPIWPVVAEGKPVDEYHTCTGIGDAAAIQNVLLTANLPVSFVWVPLYSACHLMIVSINRHWRQTHPDLTSEQLTKKVGDVIHQTRMSIKLPKIVVLDDDVDPADTESLLWALATRIHPERKRYFYESNIFPWLNCYSEEERHNRKGKRVIIDALLPENVGAIVSFDYAYPDDIKQRVLMHWETDFSHD	++++
I283T-P284D-N287P-S322T-N388M-C430N-L432F-L434W-S436N-H461V-dG462-A463T-S465V (protein) MFLKSLREQINLLKRQGDLRIINRPVDSYLEAAAIIRRSTETKAPVPLMTNIKGYPGCSIVGGLAALSSNPEYPLSRVAMSLGLSTTASAQSIVQYLIDGLKKTPYLPVEIDSNSAPCKQNILRGEDASLAHFPIPQVHQHDGNRYVNTWGVFIVESPDGQWCNWSIQRVQYLNDRQMIALVFPSQHISDIWEEWVKIGKPMPYALVQGCEPIVPYIAGLPLLERNVNEAEYIGALYGKGIEVVKCETHDLRVPASSEVVIEGYFAITREGVEGPFGEFAGYTDNEPSLQPILSITAISWQDDPIWPVVAEGKPVDEYHTCTGIGDAAAIQNVLLTANLPVSFVWVPLYSACHLMIVSINRHWRQTHPDLTSEQLTKKVGDVIHQTRMSIKLPKIVVLDDDVDPADTESLLWALATRIHPERKRYFYESNIFPWLNCYSEEERHNRKGKRVIIDALLPENVGTIVSFDYAYPDDIKQRVLMHWETDFSHD	++++
I283T-P284D-N287P-S322T-N388M-C430N-L432F-L434W-S436N-H461Y-dG462-A463T-S465V (protein) MFLKSLREQINLLKRQGDLRIINRPVDSYLEAAAIIRRSTETKAPVPLMTNIKGYPGCSIVGGLAALSSNPEYPLSRVAMSLGLSTTASAQSIVQYLIDGLKKTPYLPVEIDSNSAPCKQNILRGEDASLAHFPIPQVHQHDGNRYVNTWGVFIVESPDGQWCNWSIQRVQYLNDRQMIALVFPSQHISDIWEEWVKIGKPMPYALVQGCEPIVPYIAGLPLLERNVNEAEYIGALYGKGIEVVKCETHDLRVPASSEVVIEGYFAITREGVEGPFGEFAGYTDNEPSLQPILSITAISWQDDPIWPVVAEGKPVDEYHTCTGIGDAAAIQNVLLTANLPVSFVWVPLYSACHLMIVSINRHWRQTHPDLTSEQLTKKVGDVIHQTRMSIKLPKIVVLDDDVDPADTESLLWALATRIHPERKRYFYESNIFPWLNCYSEEERHNRKGKRVIIDALLPENYGTIVSFDYAYPDDIKQRVLMHWETDFSHD	++++
N388M-K394R-C430N-L432F-L434W-S436N-H444V (protein) MFLKSLREQINLLKRQGDLRIINRPVDSYLEAAAIIRRSTETKAPVPLMTNIKGYPGCSIVGGLAALSSNPEYPLSRVAMSLGLSTTASAQSIVQYLIDGLKKTPYLPVEIDSNSAPCKQNILRGEDASLAHFPIPQVHQHDGNRYVNTWGVFIVESPDGQWCNWSIQRVQYLNDRQMIALVFPSQHISDIWEEWVKIGKPMPYALVQGCEPIVPYIAGLPLLERNVNEAEYIGALYGKGIEVVKCETHDLRVPASSEVVIEGYFAITREGVEGPFGEFAGYIPNENSLQPILSITAISWQDDPIWPVVAEGKPVDEYHTCSGIGDAAAIQNVLLTANLPVSFVWVPLYSACHLMIVSINRHWRQTHPDLTSEQLTKKVGDVIHQTRMSIKLPRIVVLDDDVDPADTESLLWALATRIHPERKRYFYESNIFPWLNCYSEEERVNRKGKRVIIDALLPENHGAISSFDYAYPDDIKQRVLMHWETDFSHD	+
I283T-P284D-N287P-S322T-N388M-E421V-R422F-C430N-L432F-L434W-S436N-dG462 (protein) MFLKSLREQINLLKRQGDLRIINRPVDSYLEAAAIIRRSTETKAPVPLMTNIKGYPGCSIVGGLAALSSNPEYPLSRVAMSLGLSTTASAQSIVQYLIDGLKKTPYLPVEIDSNSAPCKQNILRGEDASLAHFPIPQVHQHDGNRYVNTWGVFIVESPDGQWCNWSIQRVQYLNDRQMIALVFPSQHISDIWEEWVKIGKPMPYALVQGCEPIVPYIAGLPLLERNVNEAEYIGALYGKGIEVVKCETHDLRVPASSEVVIEGYFAITREGVEGPFGEFAGYTDNEPSLQPILSITAISWQDDPIWPVVAEGKPVDEYHTCTGIGDAAAIQNVLLTANLPVSFVWVPLYSACHLMIVSINRHWRQTHPDLTSEQLTKKVGDVIHQTRMSIKLPKIVVLDDDVDPADTESLLWALATRIHPVFKRYFYESNIFPWLNCYSEEERHNRKGKRVIIDALLPENHGAISSFDYAYPDDIKQRVLMHWETDFSHD	++++
I283T-P284D-N287P-S322T-N388M-E421V-C430N-L432F-L434W-S436N-H461V-dG462 (protein) MFLKSLREQINLLKRQGDLRIINRPVDSYLEAAAIIRRSTETKAPVPLMTNIKGYPGCSIVGGLAALSSNPEYPLSRVAMSLGLSTTASAQSIVQYLIDGLKKTPYLPVEIDSNSAPCKQNILRGEDASLAHFPIPQVHQHDGNRYVNTWGVFIVESPDGQWCNWSIQRVQYLNDRQMIALVFPSQHISDIWEEWVKIGKPMPYALVQGCEPIVPYIAGLPLLERNVNEAEYIGALYGKGIEVVKCETHDLRVPASSEVVIEGYFAITREGVEGPFGEFAGYTDNEPSLQPILSITAISWQDDPIWPVVAEGKPVDEYHTCTGIGDAAAIQNVLLTANLPVSFVWVPLYSACHLMIVSINRHWRQTHPDLTSEQLTKKVGDVIHQTRMSIKLPKIVVLDDDVDPADTESLLWALATRIHPVRKRYFYESNIFPWLNCYSEEERHNRKGKRVIIDALLPENVGAISSFDYAYPDDIKQRVLMHWETDFSHD	++++
